Laboratory results: US20230051715A1 (MABWELL THERAPEUTICS, published 2023)

T1: human C1s mutant M5 (K336G) (human, UniProt P09871 16-688)
T1 construct: The entry is the mutant itself
T1 sequence: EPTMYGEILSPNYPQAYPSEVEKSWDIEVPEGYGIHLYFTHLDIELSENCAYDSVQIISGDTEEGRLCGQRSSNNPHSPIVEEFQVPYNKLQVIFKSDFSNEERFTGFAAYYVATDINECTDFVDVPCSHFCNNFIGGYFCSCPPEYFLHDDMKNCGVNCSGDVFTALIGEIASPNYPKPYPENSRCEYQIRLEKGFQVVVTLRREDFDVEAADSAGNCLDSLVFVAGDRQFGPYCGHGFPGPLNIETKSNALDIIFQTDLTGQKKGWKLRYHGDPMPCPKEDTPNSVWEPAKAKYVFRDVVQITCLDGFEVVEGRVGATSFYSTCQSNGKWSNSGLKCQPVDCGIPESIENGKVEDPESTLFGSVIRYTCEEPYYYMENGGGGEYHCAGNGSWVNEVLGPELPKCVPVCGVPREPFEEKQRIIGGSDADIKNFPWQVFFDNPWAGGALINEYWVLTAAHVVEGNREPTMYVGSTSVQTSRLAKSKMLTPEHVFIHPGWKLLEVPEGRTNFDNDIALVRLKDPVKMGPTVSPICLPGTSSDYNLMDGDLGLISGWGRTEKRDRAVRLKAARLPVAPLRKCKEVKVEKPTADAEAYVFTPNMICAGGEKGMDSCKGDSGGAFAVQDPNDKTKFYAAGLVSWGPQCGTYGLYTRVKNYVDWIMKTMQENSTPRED

T2: rat C1s (produced in house) (rat, UniProt Q6P6T1 16-688)
T2 construct: also called RaC1s
T2 sequence: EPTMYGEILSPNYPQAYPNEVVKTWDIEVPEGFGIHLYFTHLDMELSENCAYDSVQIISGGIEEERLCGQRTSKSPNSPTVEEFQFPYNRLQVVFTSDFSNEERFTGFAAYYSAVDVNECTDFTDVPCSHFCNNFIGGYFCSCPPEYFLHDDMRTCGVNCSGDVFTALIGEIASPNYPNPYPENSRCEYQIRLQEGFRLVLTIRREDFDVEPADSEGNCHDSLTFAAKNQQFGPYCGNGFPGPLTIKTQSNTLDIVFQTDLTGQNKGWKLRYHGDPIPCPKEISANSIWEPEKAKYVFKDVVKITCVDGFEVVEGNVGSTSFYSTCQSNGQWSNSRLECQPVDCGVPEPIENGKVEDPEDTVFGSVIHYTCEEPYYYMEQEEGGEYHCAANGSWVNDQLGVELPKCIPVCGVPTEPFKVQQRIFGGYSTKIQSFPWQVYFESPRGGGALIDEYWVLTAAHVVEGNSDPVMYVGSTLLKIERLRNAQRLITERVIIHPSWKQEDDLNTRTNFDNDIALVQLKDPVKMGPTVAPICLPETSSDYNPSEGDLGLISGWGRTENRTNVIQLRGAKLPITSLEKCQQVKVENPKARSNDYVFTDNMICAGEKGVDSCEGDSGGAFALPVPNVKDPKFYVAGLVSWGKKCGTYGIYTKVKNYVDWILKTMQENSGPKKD

B1: Anti-C1s antibody hz2-7(H1L2) (antibody, V domains shown)
VH: EVQLLESGGGLVQPGGSLRLSCAASGFTFSNYFMNWVRQAPGKGLEWVSEIRLKFTNYATHYADSVKGRFTISRDDSKSTLYLQMNSLRAEDTAVYYCTRDYGSRNGYFDYWGQGTLVTVSS
VL: DIVMTQTPLSLPVTPGEPASISCRSSKSLLHSNGNTFLYWFLQKPGQSPQLLIYRMSNLASGVPDRFSGSGSGTDFTLKISRVEAEDVGVYYCMQHLEYPYTFGGGTKLEIKR
notes: Humanized, human IgG1 / kappa; also called hz2-7(1L2)
B2: Anti-C1s antibody 2-8 (antibody, V domains shown)
VH: EVQLQQSGAELVRPGALVKLSCKASGFNIKEYYMHWVKQRPEQGLEWIGWIDPENGDTIYDPKFQGKASITADTSSNTAYLQLSSLTSEDTAVYYCARSRLFFAYWGQGTLVTVSA
VL: DIVMTQSHKFMSTSVGDRVSFTCKASQDVRTAVDWYQQKPGQSPKLLIYSASYRYTGVPDRFTGTGSGTDFTFTISSVQAEDLAVYFCQQQYTTPYTFGGGTKLEIKT
notes: the HC/LC entries may hold it too; also called clone 2-8

Assays:
[1] = target: T1, human C1s mutant M5 (K336G); test: ELISA, plate coated with human C1s mutant M5: K336G, OD450nm
Experimental: ELISA was carried out by first coating 96-well plates with 200 ng/well of full-length or truncated C1s proteins overnight. The next morning, plates were blocked with SuperBlock T20 blocking buffer (Thermo Scientific 37536) for 1 h with gentle shaking. Then, various concentrations of anti-C1s antibodies diluted in SuperBlock T20 blocking buffer were added to the plates and incubated for 1 h with gentle shaking. Mouse IgG (Sigma-Aldrich 15381) and human IgG1 (BioXCell BP0297) were used as negative controls. The plates were washed before incubating with HRP conjugated secondary antibodies diluted in SuperBlock T20 blocking buffer (goat anti-mouse IgG (H+L) cross-adsorbed secondary antibody HRP (Invitrogen G-21040) or goat anti-human IgG antibody, HRP conjugate (Millipore AP309P)) for 1 h with gentle shaking. At last, the plates were washed and color developed with ELISA liquid HRP substrate (Sigma-Aldrich), followed by stopping the reaction with addition of 1M H₂SO₄ in the same volume as the ELISA liquid substrate. Bound antibody was measured by absorbance at OD₄₅₀ₙₘ.
Binding of anti-C1s antibodies to mutants M1-M20 of human C1s was measured by ELISA as described in Example 4, and results are shown in FIGS. 6B-6U. […]

[2] = target: T2, rat C1s (produced in house); test: BLI (Octet RED96e), antibody on AHC biosensor; C1s Species: Rat; R^2 0.9776
Excerpt: At last, analyte was dissociated in 1×KB for 360 sec. Data analysis was done using OCTET® Data Analysis HT Software (Sartorius AG).

| Binder | EC50 [1] | Kd [2] | koff [2] | kon [2] |
| --- | --- | --- | --- | --- |
| B1 | 0.015 µg/mL |  |  |  |
| B2 |  | 17 nM | 0.0012 s⁻¹ | 68000 M⁻¹ s⁻¹ |
